Test results taken from patent publication US20230192845A1 (BLINK BIOMEDICAL, published 2023).
Each block holds one binder with its values, some of them ahead of it.

Key:
[1] = target: T1, human CD96 short isoform v2 expressed on CHO cells (human, UniProt P40200 22-585); assay: FCM on hCD96v2-CHO cells
T1 construct: also called hCD96v2; CD96v2; not shown: C-terminal HA-tag
T1 sequence: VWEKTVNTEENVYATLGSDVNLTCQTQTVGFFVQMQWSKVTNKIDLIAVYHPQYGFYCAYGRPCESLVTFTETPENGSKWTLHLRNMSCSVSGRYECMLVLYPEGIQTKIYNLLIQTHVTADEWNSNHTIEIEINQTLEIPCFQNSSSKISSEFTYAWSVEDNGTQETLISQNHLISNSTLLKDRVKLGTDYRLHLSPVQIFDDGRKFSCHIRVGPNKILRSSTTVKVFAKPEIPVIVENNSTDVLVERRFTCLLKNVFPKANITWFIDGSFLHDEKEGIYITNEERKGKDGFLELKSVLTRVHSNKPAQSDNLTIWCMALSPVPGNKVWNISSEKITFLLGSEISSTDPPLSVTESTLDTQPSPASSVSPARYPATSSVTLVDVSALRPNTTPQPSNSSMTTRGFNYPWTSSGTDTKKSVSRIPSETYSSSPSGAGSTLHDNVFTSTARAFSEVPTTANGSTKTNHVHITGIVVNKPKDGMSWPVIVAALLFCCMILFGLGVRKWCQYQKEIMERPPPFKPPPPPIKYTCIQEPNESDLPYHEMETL
Protocol: FIG. 6: Binding profiles of anti-hCD96 antibodies on human CD96-transfected CHO cells (hCD96v2, short isoform). CHO cells expressing hCD96v2 were incubated with serial dilution of the indicated mIgG1 or mIgG2a anti-CD96 or isotype control antibodies. […] The results are expressed as the difference of mean fluorescence intensity (delta MFI) between cells stained with antibodies and cells without antibodies. Dose response curves were obtained from GraphPad prism software using a non-linear regression fit with a variable slope model (4 parameters). To simplify the reading, results from the various anti-hCD96 candidates are shown on 4 different panels.
The capacity of the identified mouse anti-CD96 antibodies to recognize the cell membrane expressed human CD96 was further analyzed by flow cytometry (FCM) by using CHO cells stably transfected with the CD96 short isoform v2 (CD96v2; Genbank accession number NM_005816, flanked in C-terminus with HA-tag) (SEQ ID NO: 268).
Mouse anti-CD96 antibodies and isotype control antibodies were incubated at various concentrations from 10 μg/mL to 4.6 ng/mL with CHO cells expressing human CD96 at +4° C. for 30 minutes. […] The differences between the mean fluorescence intensity (MFI) obtained for each of the antibody concentration and the intensity obtained in absence of primary antibody (delta-MFI), were calculated and plotted against the concentrations of antibodies.

[2] = target: T1, human CD96 short isoform v2 expressed …; assay: FCM, inhibition of hCD155-Fc binding to hCD96v2-CHO cells
Protocol: All candidates except BL006-2-19 that bound very weakly on hCD96v2 by FCM were tested for their capacity to inhibit the binding of human CD155 to hCD96v2 stably expressed on CHO cells. Human CD96-transfected CHO cells (3×10⁵ cells/well of 96-well plate) were incubated at +4° C. for 30 minutes with serial dilutions of anti-CD96 antibodies or isotype control antibody (in mIgG2a or mIgG2aD265A format) in the presence of 4 μg/mL of biotinylated hCD155-Fc (produced and biotinylated at BliNK).
% inhibition=(1−(MFI_wAb&CD155−MFI_CHO)/(MFI_wCD155−MFI_CHO))×100, where MFI_wAb&CD155 is the Mean Intensity Fluorescence (MFI) obtained with the hCD96-CHO cells incubated with the tested antibody and hCD155-hFc; MFI_CHO is the MFI obtained in the absence of hCD155 and mAbs; and MFI_wCD155 is the fluorescence with hCD155 but without pre-incubation with antibody (0% CD155 binding inhibition). The % of inhibition was plotted against antibody concentration and the IC50 values were calculated by using a nonlinear regression analysis model of the GraphPad Prism software.

[3] = target: T2, rhesus CD96 transiently expressed on CHO cells (rhesus, UniProt P40200 22-585 (human entry)); assay: flow cytometry on CHO cells transiently expressing rhesus CD96; antibody at 1 (thin line) and 10 µg/ml (thick dashed line), filled grey = isotype control
T2 construct: also called rhesus CD96, short isoform
T2 chain: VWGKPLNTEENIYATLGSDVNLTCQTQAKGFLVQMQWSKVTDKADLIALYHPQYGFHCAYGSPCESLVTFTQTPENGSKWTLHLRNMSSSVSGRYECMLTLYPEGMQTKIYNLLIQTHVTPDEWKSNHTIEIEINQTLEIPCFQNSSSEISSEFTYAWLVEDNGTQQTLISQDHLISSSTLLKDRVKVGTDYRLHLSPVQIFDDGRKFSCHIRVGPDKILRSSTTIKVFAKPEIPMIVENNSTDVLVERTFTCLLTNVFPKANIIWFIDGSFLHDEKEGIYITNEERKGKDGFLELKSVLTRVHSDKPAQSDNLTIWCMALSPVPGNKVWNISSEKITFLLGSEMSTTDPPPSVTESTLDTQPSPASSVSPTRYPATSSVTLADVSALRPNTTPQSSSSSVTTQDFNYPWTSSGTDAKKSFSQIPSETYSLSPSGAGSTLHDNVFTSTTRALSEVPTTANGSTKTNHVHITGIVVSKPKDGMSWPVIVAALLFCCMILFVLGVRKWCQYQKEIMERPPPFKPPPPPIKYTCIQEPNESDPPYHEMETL
Protocol: FIG. 7: Binding profiles of anti-CD96 antibodies on CHO cells transfected with rhesus CD96. Anti-CD96 antibodies or the corresponding isotype control mAbs were tested for their capacity to recognize rhesus CD96 transiently expressed on CHO cells by flow cytometry. Each histogram represents the overlay of the fluorescence intensity obtained for each antibody tested at 1 (black line) and 10 μg/ml (thick dashed black line) and compared to the fluorescence obtained with an isotypic control (filled grey histogram).
(§1) The capacity of the identified mouse anti-human CD96 antibodies to recognize the CD96 protein from other species was further analyzed by flow cytometry by using CHO cells expressing the mouse or the rhesus CD96. The expression of the species-specific CD96 on CHO cell surface was confirmed by using staining with appropriate anti-CD96 antibodies and flow cytometry on non-fixed cells. The rat anti-mCD96 antibody clone #630612 (R&D Systems) and the candidate BL006-9-1 (positive by ELISA on rhesus CD96) were used to confirm the expression of rhesus CD96, while the clone 6A6 (rat IgG2a, e-Bioscience) was used to verify the expression of mouse CD96.
(§2) Mouse anti-CD96 antibodies and isotype control antibodies were incubated at 10 or 1 μg/mL with CHO cells expressing different CD96 species at +4° C. for 30 minutes.

[4] = target: T3, mouse CD96 expressed on CHO cells (mouse, UniProt Q3U0X8 22-602); assay: FCM on CHO cells expressing mouse CD96
T3 construct: whole, on cells; also called mCD96
T3 sequence (looked up): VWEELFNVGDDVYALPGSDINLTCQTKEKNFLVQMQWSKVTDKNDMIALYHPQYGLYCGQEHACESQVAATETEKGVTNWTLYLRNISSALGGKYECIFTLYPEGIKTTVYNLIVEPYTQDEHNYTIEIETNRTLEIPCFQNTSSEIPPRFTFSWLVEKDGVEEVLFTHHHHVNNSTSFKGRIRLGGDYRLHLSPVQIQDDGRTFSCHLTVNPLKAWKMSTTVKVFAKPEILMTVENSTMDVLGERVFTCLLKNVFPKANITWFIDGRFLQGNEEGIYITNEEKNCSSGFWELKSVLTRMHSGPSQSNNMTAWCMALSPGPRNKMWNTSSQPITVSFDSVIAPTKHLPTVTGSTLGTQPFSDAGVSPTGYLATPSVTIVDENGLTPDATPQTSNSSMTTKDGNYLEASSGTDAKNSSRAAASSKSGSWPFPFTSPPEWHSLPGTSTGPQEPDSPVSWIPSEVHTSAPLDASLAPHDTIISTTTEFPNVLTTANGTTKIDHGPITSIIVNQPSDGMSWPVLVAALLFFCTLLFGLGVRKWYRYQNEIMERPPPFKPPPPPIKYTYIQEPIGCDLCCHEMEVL
Text: as §1, §2

B2: BL006-9-1G1-1K1 (antibody, V domains shown)
VH: EVKLVESGGGLVKPGGSLKLSCAASGFTFSSYAMSWVRQTPERGLEWVAAIQSNGGSTFYPDTVKDRFTISRDNAKNTLYLQMSSLRSEDTALYYCVRGPFDYWGQGTTLTVSS
VL: QIVLTQSPAIMSASPGQKVTIPCSASSSVNYIHWFQQKLGSSPKLWIYDTSKLTPGVPARFSGSGSGTSYSLTISSMEAEDAASYFCHQWRSYPPTFGGGTKLEIK
notes: Recombinant mIgG2a/kappa (also made as mIgG2a-D265A); also called candidate NO 11
EC50 [1]: 17.5 nM | Maximum binding (delta MFI) [1]: 514000 delta MFI | Maximal Inhibition Capacity (%) [2]: < 5% | binding result [3]: binds | binding result [4]: no binding (tested: 1 and 10 µg/mL)

B5: BL006-11-5G1-5K3 (antibody, V domains shown)
VH: EVQLVESGGGLVKPGGSLKLSCAASGFTFSSYAMSWVRQTPEKRLEWVAAINTDGASTYFPATVKDRFTISRDNAKNTLYLQMSSLRSEDTALYYCARPLEPGSWFAYWGQGTLVTVSA
VL: DVLMTQTPLSLPVSLGDQASISCRSSQSIVHSNGNTYLEWYLQKPGQSPKVLIYKVSNRFSGVPDRISGSGSGTDFTLKISRVEAGDLGVYYCFQGSHVPYTFGGGTKLEIK
notes: Recombinant mIgG2a/kappa (also made as mIgG2a-D265A); also called BL006-11-5G1-5K3 #5; candidate NO 5
EC50 [1]: 12.8 nM | Maximum binding (delta MFI) [1]: 373000 delta MFI | Maximal Inhibition Capacity (%) [2]: < 5% | binding result [3]: no binding (tested: 10 µg/ml) | binding result [4]: no binding (tested: 1 and 10 µg/mL)

B6: BL006-19-183G3-183K4 (antibody, V domains shown)
VH: QVTLNESGPGILQPSQTLSLTCSFSGFSLTTYGMGVGWIRQPSGKSLEWLANIWWTEDKYYNSALKSRLTISTDTSHNQVFLKISSVDTEDTATYYCAQMGPEVYSAMDYWGQGTSVTVSS
VL: DIVMTPSQKFMSTTVGDRVSITCKASQNVGTAVAWYQQKPGHSPKLLIYSASNRNTGVPDRFTGSGSGTDFTLTISNMQSEDLADYFCHQYSRYPWTFGGGTKLEIK
notes: Recombinant mIgG2a/kappa (also made as mIgG2a-D265A); also called BL006-19-183G3-183K4 #3; candidate NO 8
EC50 [1]: 4.56 nM | Maximum binding (delta MFI) [1]: 681000 delta MFI | IC50 [2]: 15 nM | Maximal Inhibition Capacity (%) [2]: 100% | binding result [3]: no binding (tested: 10 µg/ml) | binding result [4]: no binding (tested: 1 and 10 µg/mL)

B7: BL006-19-190G4-190K6 (antibody, V domains shown)
VH: EVQLVESGGGLVQPGGSLKLSCAASGFTFSNYGMSWVRQTPDKRLELVATINSNGGSTYYPDSVKGRFTISRDNAKNTLYLQMSSLKSEDTAMYYCTKRGAWYFDVWGTGTTVTVSS
VL: DIQMTQSSSSFSVSLGDRVTITCKASEDIYNRLAWYQQKPGNAPRLLISSATSLETGVSSRFSGSGSGKDYTLSITSLQTEDVATYYCQQYWTTPTWTFGGGTKLEIK
notes: Recombinant mIgG2a/kappa (also made as mIgG2a-D265A); also called candidate NO 16
EC50 [1]: 3.39 nM | Maximum binding (delta MFI) [1]: 711000 delta MFI | IC50 [2]: 11.5 nM | Maximal Inhibition Capacity (%) [2]: 98.1% | binding result [3]: no binding (tested: 10 µg/ml) | binding result [4]: no binding (tested: 1 and 10 µg/mL)

Further binders by falling EC50 [1], results first:

EC50 [1]: 6.53 nM | Maximum binding (delta MFI) [1]: 599000 delta MFI | IC50 [2]: 19.4 nM | Maximal Inhibition Capacity (%) [2]: 100% | binding result [3]: binds | binding result [4]: no binding (tested: 1 and 10 µg/mL)
B3: BL006-19-21G1-21K1 (antibody, V domains shown)
VH: QVQLQQPGAELVKPGASVKMSCKASGYTFISYWITWVKQRPGQGLEWIGDIYPGSGHTNYNEKFKSKATLTVDTSSSTAYMQLSSLTSEDSAVYYCARPTVEAMDYWGQGTSVTVSS
VL: QIVLTQSPAIMSASPGEKVTMTCSASSSVNYMHWYQQRSGTSPKRWIYDTSKLASGVPARFSGSGSGTSYSLTISSMEAEDAATYYCQQWSNNPLTFGAGTKLELK
notes: Recombinant mIgG2a/kappa (also made as mIgG2a-D265A); also called candidate NO 13

EC50 [1]: 3.3 nM | Maximum binding (delta MFI) [1]: 636000 delta MFI | IC50 [2]: 8.84 nM | Maximal Inhibition Capacity (%) [2]: 98.3% | binding result [3]: binds | binding result [4]: no binding (tested: 1 and 10 µg/mL)
B4: BL006-19-55G10-55K7 (antibody, V domains shown)
VH: QVQLQQSGAEVVRPGTSVKMSCKAAGYTFTDNWIDWVKQRPGHGLDWIGNIFPGGNYTNYNEKFKGKATLTADTSSSTAYMQLINLTSEDSAIYYCVRAVADSQFAYWGQGTLVTVSA
VL: QIVLTQSPAIMSVSPGEKVTMTCSASSRVTYMYWYQQKPGSSPKPWIYRTSNLASGVPVRFSGSGSGTSYSLTISSMEAEDAATYYCQQWSSNPLTFGAGTKLELK
notes: Recombinant mIgG2a/kappa (also made as mIgG2a-D265A); also called candidate NO 15

EC50 [1]: 2.05 nM | Maximum binding (delta MFI) [1]: 330000 delta MFI | Maximal Inhibition Capacity (%) [2]: < 5% | binding result [3]: binds | binding result [4]: no binding (tested: 1 and 10 µg/mL)
B1: BL006-4-61G5-61K1 (antibody, V domains shown)
VH: EVKLEESGGGLVQPGGSMKLSCVASGFTFSNYWMNWVRQSPEKGLEWVAQIRFKSDNYATHYAESVKGRFTISRDDSKSSVYLQMHNLRAEDTGIYYCTEFAYWGQGTLVTVSA
VL: QILLTQSPAIMSASPGEKVTMTCSASSRVNSRFLNWYQQKSGVSPKLWIYGTSNLASGVPARFSGSGSGTSYSLTISSVEAEDVATYYCQQYQSDPPITFGAGTRLELI
notes: Recombinant mIgG2a/kappa (also made as mIgG2a-D265A); also called BL006-4-61G5-61K1 #7; candidate NO 3
